Reference: the supplement of paper PMC10567573

B1: MTMR15 (parent)
chain: YVKAKKSIDKDEEFAGSSPQSSKS
B2: EMD (parent)
chain: YQSKGYNDDYYEESYFTTRTYGEP

Variants of: B1
Assay: protein stability index of a GFP-peptide fusion (GPS, HEK-293T) (PSI 1-6); higher = more stable
Details: c terminus: a fixed tail appended
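Note: lentivirally expressed fusions sorted by FACS into six bins by GFP to DsRed ratio, PSI derived from sequencing read proportions per bin multiplied by bin number.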

| Variant | protein stability index |
| --- | --- |
| YVKAKKSIDKDEEFAGSSNQSSKS | 3.09 |
| YVKAKKSIDKDEEFAGSSYQSSKS | 3.02 |
| YVKAKKSIDKDEEFAGSSDQSSKS | 3.37 |
| YVKAKKSIDKDEEFAGSSAQSSKS | 3.19 |
| YVKAKKSIDKDEEFAGSSQQSSKS | 3.18 |
| YVKAKKSIDKDEEFAGSSEQSSKS | 2.94 |
| YVKAKKSIDKDEEFAGSSGQSSKS | 3.43 |
| YVKAKKSIDKDEEFAGSSTQSSKS | 3.5 |
| YVKAKKSIDKDEEFAGSSFQSSKS | 2.71 |
| YVKAKKSIDKDEEFAGSSKQSSKS | 2.63 |
| YVKAKKSIDKDEEFAGSSIQSSKS | 2.92 |
| YVKAKKSIDKDEEFAGSSMQSSKS | 3.42 |
| YVKAKKSIDKDEEFAGSSVQSSKS | 2.21 |
| YVKAKKSIDKDEEFAGSSLQSSKS | 2.54 |
| YVKAKKSIDKDEEFAGSSRQSSKS | 2.45 |
| YVKAKKSIDKDEEFAGSSWQSSKS | 2.42 |
| YVKAKKSIDKDEEFAGSSCQSSKS | 3.23 |
| YVKAKKSIDKDEEFAGSSHQSSKS | 3.25 |
| YVKAKKSIDKDEEFAGSSSQSSKS | 3.42 |
| YVKAKKSIDKDEEFAGSSPQSWKS | 2.27 |
| YVKAKKSIDKDEEFAGSSPQSIKS | 3.18 |
| YVKAKKSIDKDEEFAGSSPQSHKS | 2.77 |
| YVKAKKSIDKDEEFAGSSPQSVKS | 3.36 |
| YVKAKKSIDKDEEFAGSSPQSGKS | 2.97 |

| Variant | protein stability index |
| --- | --- |
| YVKAKKSIDKDEEFAGSSPQSAKS | 3.1 |
| YVKAKKSIDKDEEFAGSSPQSCKS | 3.08 |
| YVKAKKSIDKDEEFAGSSPQSKKS | 1.92 |
| YVKAKKSIDKDEEFAGSSPQSPKS | 3.22 |
| YVKAKKSIDKDEEFAGSSPQSEKS | 3.47 |
| YVKAKKSIDKDEEFAGSSPQSTKS | 2.87 |
| YVKAKKSIDKDEEFAGSSPQSQKS | 2.6 |
| YVKAKKSIDKDEEFAGSSPQSYKS | 2.78 |
| YVKAKKSIDKDEEFAGSSPQSMKS | 3.06 |
| YVKAKKSIDKDEEFAGSSPQSRKS | 3.59 |
| YVKAKKSIDKDEEFAGSSPQSLKS | 2.77 |
| YVKAKKSIDKDEEFAGSSPQSDKS | 3.58 |
| YVKAKKSIDKDEEFAGSSPQSFKS | 2.89 |
| YVKAKKSIDKDEEFAGSSPQSNKS | 2.83 |
| YVKAKKSIDKDEEFAVSSPQSSKS | 2.42 |
| YVKAKKSIDKDEEFAQSSPQSSKS | 3.21 |
| YVKAKKSIDKDEEFAWSSPQSSKS | 3.45 |
| YVKAKKSIDKDEEFATSSPQSSKS | 2.85 |
| YVKAKKSIDKDEEFASSSPQSSKS | 3.64 |
| YVKAKKSIDKDEEFARSSPQSSKS | 3.06 |
| YVKAKKSIDKDEEFAYSSPQSSKS | 2.19 |
| YVKAKKSIDKDEEFANSSPQSSKS | 2.98 |
| YVKAKKSIDKDEEFAPSSPQSSKS | 3.36 |
| YVKAKKSIDKDEEFAMSSPQSSKS | 3.21 |

| Variant | protein stability index |
| --- | --- |
| YVKAKKSIDKDEEFAGSSPPSSKS | 2.75 |
| YVKAKKSIDKDEEFAGSSPWSSKS | 3.13 |
| YVKAKKSIDKDEEFAGSSPYSSKS | 2.62 |
| YVKAKKSIDKDEEFAGSSPCSSKS | 2.82 |
| YVKAKKSIDKDEEFAGSSPFSSKS | 2 |
| YVKAKKSIDKDEEFAGSSPDSSKS | 3.24 |
| YVKAKKSIDKDEEFAGSSPMSSKS | 2.92 |
| YVKAKKSIDKDEEFAGSSPNSSKS | 2.96 |
| YVKAKKSIDKDEEFAGSSPVSSKS | 2.84 |
| YVKAKKSIDKDEEFAGSSPASSKS | 2.66 |
| YVKAKKSIDKDEEFAGSSPESSKS | 3.29 |
| YVKAKKSIDKDEEFAGSSPTSSKS | 3.4 |
| YVKAKKSIDKDEEFAGSSPKSSKS | 3.24 |
| YVKAKKSIDKDEEFAGSSPHSSKS | 3.2 |
| YVKAKKSIDKDEEFAGSSPISSKS | 2.51 |
| YVKAKKSIDKDEEFAGSSPSSSKS | 2.9 |
| YVKAKKSIDKDEEFAGSSPRSSKS | 2.73 |
| YVKAKKSIDKDEEFAGSSPGSSKS | 3.27 |
| YVKAKKSIDKDEEFAGSSPLSSKS | 3 |
| YVKAKKSIDKDEEFAGSSPQSSKN | 3.61 |
| YVKAKKSIDKDEEFAGSSPQSSKP | 3.02 |
| YVKAKKSIDKDEEFAGSSPQSSKE | 3.55 |
| YVKAKKSIDKDEEFAGSSPQSSKQ | 3 |
| YVKAKKSIDKDEEFAGSSPQSSKT | 2.85 |

| Variant | protein stability index |
| --- | --- |
| YVKAKKSIDKDEEFAGSSPQSSKL | 2.71 |
| YVKAKKSIDKDEEFAGSSPQSSKR | 2.37 |
| YVKAKKSIDKDEEFAGSSPQSSKK | 2.58 |
| YVKAKKSIDKDEEFAGSSPQSSKI | 3.19 |
| YVKAKKSIDKDEEFAGSSPQSSKD | 2.94 |
| YVKAKKSIDKDEEFAGSSPQSSKY | 2.83 |
| YVKAKKSIDKDEEFAGSSPQSSKC | 3.13 |
| YVKAKKSIDKDEEFAGSSPQSSKG | 2.93 |
| YVKAKKSIDKDEEFAGSSPQSSKH | 3.33 |
| YVKAKKSIDKDEEFAGSSPQSSKW | 3.03 |
| YVKAKKSIDKDEEFAGSSPQSSKF | 2.79 |
| YVKAKKSIDKDEEFAGSSPQSSKM | 3.02 |
| YVKAKKSIDKDEEFAGSSPQSSKV | 2.33 |
| YVKAKKSIDKDEEFAGSSPQSSKA | 3.29 |
| YVKAKKSIDKDEEFAGTSPQSSKS | 3.29 |
| YVKAKKSIDKDEEFAGCSPQSSKS | 3.01 |
| YVKAKKSIDKDEEFAGFSPQSSKS | 1.79 |
| YVKAKKSIDKDEEFAGLSPQSSKS | 2.93 |
| YVKAKKSIDKDEEFAGVSPQSSKS | 2.35 |
| YVKAKKSIDKDEEFAGHSPQSSKS | 3.07 |
| YVKAKKSIDKDEEFAGPSPQSSKS | 2.79 |
| YVKAKKSIDKDEEFAGWSPQSSKS | 4.48 |
| YVKAKKSIDKDEEFAGDSPQSSKS | 3.03 |
| YVKAKKSIDKDEEFAGNSPQSSKS | 2.9 |

| Variant | protein stability index |
| --- | --- |
| YVKAKKSIDKDEEFAGASPQSSKS | 2.8 |
| YVKAKKSIDKDEEFAGQSPQSSKS | 2.93 |
| YVKAKKSIDKDEEFAGMSPQSSKS | 2.85 |
| YVKAKKSIDKDEEFAGGSPQSSKS | 3.17 |
| YVKAKKSIDKDEEFAGESPQSSKS | 3.59 |
| YVKAKKSIDKDEEFAGRSPQSSKS | 2.91 |
| YVKAKKSIDKDEEFAGKSPQSSKS | 3.21 |
| YVKAKKSIDKDEEFAGYSPQSSKS | 1.92 |
| YVKAKKSIDKDEEFAGISPQSSKS | 2.96 |
| YVKAKKSIDKDEEFAGSSPQVSKS | 1.22 |
| YVKAKKSIDKDEEFAGSSPQYSKS | 2.98 |
| YVKAKKSIDKDEEFAGSSPQNSKS | 3.25 |
| YVKAKKSIDKDEEFAGSSPQHSKS | 3.24 |
| YVKAKKSIDKDEEFAGSSPQDSKS | 3.31 |
| YVKAKKSIDKDEEFAGSSPQFSKS | 3.03 |
| YVKAKKSIDKDEEFAGSSPQESKS | 3.3 |
| YVKAKKSIDKDEEFAGSSPQQSKS | 3.34 |
| YVKAKKSIDKDEEFAGSSPQLSKS | 2.86 |
| YVKAKKSIDKDEEFAGSSPQRSKS | 2.78 |
| YVKAKKSIDKDEEFAGSSPQCSKS | 3.01 |
| YVKAKKSIDKDEEFAGSSPQASKS | 3.23 |
| YVKAKKSIDKDEEFAGSSPQGSKS | 2.61 |
| YVKAKKSIDKDEEFAGSSPQTSKS | 3.1 |
| YVKAKKSIDKDEEFAGSSPQWSKS | 2.41 |

| Variant | protein stability index |
| --- | --- |
| YVKAKKSIDKDEEFAGSSPQISKS | 2.67 |
| YVKAKKSIDKDEEFAGSSPQMSKS | 3.31 |
| YVKAKKSIDKDEEFAGSSPQPSKS | 2.95 |
| YVKAKKSIDKDEEFAGSSPQKSKS | 2.92 |
| YVKAKKSIDKDEEFAGSSPQSSCS | 3.5 |
| YVKAKKSIDKDEEFAGSSPQSSDS | 3.11 |
| YVKAKKSIDKDEEFAGSSPQSSLS | 3 |
| YVKAKKSIDKDEEFAGSSPQSSQS | 3.32 |
| YVKAKKSIDKDEEFAGSSPQSSWS | 2.58 |
| YVKAKKSIDKDEEFAGSSPQSSPS | 3.94 |
| YVKAKKSIDKDEEFAGSSPQSSGS | 3.06 |
| YVKAKKSIDKDEEFAGSSPQSSHS | 3.33 |
| YVKAKKSIDKDEEFAGSSPQSSMS | 3.1 |
| YVKAKKSIDKDEEFAGSSPQSSSS | 3.08 |
| YVKAKKSIDKDEEFAGSSPQSSIS | 2.76 |
| YVKAKKSIDKDEEFAGSSPQSSES | 3.55 |
| YVKAKKSIDKDEEFAGSSPQSSRS | 3.4 |
| YVKAKKSIDKDEEFAGSSPQSSFS | 3.02 |
| YVKAKKSIDKDEEFAGSSPQSSNS | 3.41 |
| YVKAKKSIDKDEEFAGSSPQSSVS | 3.85 |
| YVKAKKSIDKDEEFAGSSPQSSYS | 2.76 |
| YVKAKKSIDKDEEFAGSSPQSSTS | 3.46 |
| YVKAKKSIDKDEEFAGSSPQSSAS | 3.44 |
| YVKAKKSIDKDEEFAGSYPQSSKS | 2.86 |

| Variant | protein stability index |
| --- | --- |
| YVKAKKSIDKDEEFAGSHPQSSKS | 2.68 |
| YVKAKKSIDKDEEFAGSLPQSSKS | 2.85 |
| YVKAKKSIDKDEEFAGSVPQSSKS | 3.38 |
| YVKAKKSIDKDEEFAGSWPQSSKS | 1.7 |
| YVKAKKSIDKDEEFAGSQPQSSKS | 2.93 |
| YVKAKKSIDKDEEFAGSKPQSSKS | 3.04 |
| YVKAKKSIDKDEEFAGSRPQSSKS | 3.13 |
| YVKAKKSIDKDEEFAGSCPQSSKS | 2.75 |
| YVKAKKSIDKDEEFAGSIPQSSKS | 3.66 |
| YVKAKKSIDKDEEFAGSTPQSSKS | 2.64 |
| YVKAKKSIDKDEEFAGSDPQSSKS | 3.18 |
| YVKAKKSIDKDEEFAGSFPQSSKS | 2.67 |
| YVKAKKSIDKDEEFAGSGPQSSKS | 3.26 |
| YVKAKKSIDKDEEFAGSEPQSSKS | 3.48 |
| YVKAKKSIDKDEEFAGSNPQSSKS | 3.9 |
| YVKAKKSIDKDEEFAGSMPQSSKS | 2.59 |
| YVKAKKSIDKDEEFAGSPPQSSKS | 3.04 |
| YVKAKKSIDKDEEFAGSAPQSSKS | 2.99 |

Variants of: B2
Assay: as above
Details: c terminus: a fixed tail appended

| Variant | protein stability index |
| --- | --- |
| WQSKGYNDDYYEESYFTTRTYGEP | 2.61 |
| AQSKGYNDDYYEESYFTTRTYGEP | 3.8 |
| TQSKGYNDDYYEESYFTTRTYGEP | 3.7 |
| QQSKGYNDDYYEESYFTTRTYGEP | 4.15 |
| HQSKGYNDDYYEESYFTTRTYGEP | 3.76 |
| VQSKGYNDDYYEESYFTTRTYGEP | 3.67 |
| FQSKGYNDDYYEESYFTTRTYGEP | 1.97 |
| LQSKGYNDDYYEESYFTTRTYGEP | 2.92 |
| RQSKGYNDDYYEESYFTTRTYGEP | 3.48 |
| DQSKGYNDDYYEESYFTTRTYGEP | 4.46 |
| PQSKGYNDDYYEESYFTTRTYGEP | 3.63 |
| KQSKGYNDDYYEESYFTTRTYGEP | 3.63 |
| CQSKGYNDDYYEESYFTTRTYGEP | 3.02 |
| IQSKGYNDDYYEESYFTTRTYGEP | 3.2 |
| GQSKGYNDDYYEESYFTTRTYGEP | 3.8 |
| EQSKGYNDDYYEESYFTTRTYGEP | 4.2 |
| SQSKGYNDDYYEESYFTTRTYGEP | 3.67 |
| MQSKGYNDDYYEESYFTTRTYGEP | 3.22 |
| NQSKGYNDDYYEESYFTTRTYGEP | 3.9 |
| YCSKGYNDDYYEESYFTTRTYGEP | 2.12 |
| YASKGYNDDYYEESYFTTRTYGEP | 2.15 |
| YESKGYNDDYYEESYFTTRTYGEP | 3.62 |
| YGSKGYNDDYYEESYFTTRTYGEP | 2.53 |
| YFSKGYNDDYYEESYFTTRTYGEP | 1.93 |
| YHSKGYNDDYYEESYFTTRTYGEP | 2.03 |
| YDSKGYNDDYYEESYFTTRTYGEP | 3.5 |
